Tests used:
[1] = target: cynomolgus TIM-3 Fc fusion antigen (Sino Biologicals) (cynomolgus monkey (Macaca fascicularis)); experiment: ELISA; TIM-3 Fc fusion coated at 1 µg/ml, antibody titrated 2-fold from 1000 nM, HRP secondary
[2] = target: cynomolgus TIM-3 Fc fusion antigen (Sino Biologicals) (cynomolgus monkey (Macaca fascicularis)); experiment: ELISA; EC50 on cynomolgus TIM-3 over EC50 on human TIM-3

Sequence of cynomolgus TIM-3 Fc fusion antigen (Sino Biologicals) (cynomolgus monkey (Macaca fascicularis)) (chain, as listed by the source limits assumed): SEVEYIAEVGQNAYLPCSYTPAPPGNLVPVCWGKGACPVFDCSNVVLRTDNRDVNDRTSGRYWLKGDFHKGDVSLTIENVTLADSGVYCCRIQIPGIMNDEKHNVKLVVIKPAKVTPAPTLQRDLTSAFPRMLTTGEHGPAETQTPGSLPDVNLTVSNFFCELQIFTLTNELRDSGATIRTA

- EC50 [1]: 9.42 nM
- Ratio Cynomolgus/Human EC50 [2]: 47
B1: antibody 19416 (antibody, V domains shown)
VH: QVQLVESGPGLVKPSQTLSLTCTVSGGSINSGGYYWSWIRQHPGKGLEWIGYIYYSGSIYYNPSLRSRLTISVDTSKNQFSLKLSSVTAADTAVYYCATPYYYGSGSYGDYWGQGTLVTVSS
VL: DIQMTQSPATLSLSPGERATLSCRASQSVNNYLAWYQQKPGQAPRLLIYDASNRATGIPARFSGSGSGTDFTLTISSLEPEDFAVYYCQQRSNWPITFGQGTRLEIK

Reference: patent publication US20190276531A1
